The text below walks through data of article doi:10.1101/2023.03.19.533240.

The target of the data set is MBP-DDX3X WT (UniProt O00571 1-662). Description: time-resolved fluorescence anisotropy.
MBP-DDX3X WT, sequence (O00571 whole entry): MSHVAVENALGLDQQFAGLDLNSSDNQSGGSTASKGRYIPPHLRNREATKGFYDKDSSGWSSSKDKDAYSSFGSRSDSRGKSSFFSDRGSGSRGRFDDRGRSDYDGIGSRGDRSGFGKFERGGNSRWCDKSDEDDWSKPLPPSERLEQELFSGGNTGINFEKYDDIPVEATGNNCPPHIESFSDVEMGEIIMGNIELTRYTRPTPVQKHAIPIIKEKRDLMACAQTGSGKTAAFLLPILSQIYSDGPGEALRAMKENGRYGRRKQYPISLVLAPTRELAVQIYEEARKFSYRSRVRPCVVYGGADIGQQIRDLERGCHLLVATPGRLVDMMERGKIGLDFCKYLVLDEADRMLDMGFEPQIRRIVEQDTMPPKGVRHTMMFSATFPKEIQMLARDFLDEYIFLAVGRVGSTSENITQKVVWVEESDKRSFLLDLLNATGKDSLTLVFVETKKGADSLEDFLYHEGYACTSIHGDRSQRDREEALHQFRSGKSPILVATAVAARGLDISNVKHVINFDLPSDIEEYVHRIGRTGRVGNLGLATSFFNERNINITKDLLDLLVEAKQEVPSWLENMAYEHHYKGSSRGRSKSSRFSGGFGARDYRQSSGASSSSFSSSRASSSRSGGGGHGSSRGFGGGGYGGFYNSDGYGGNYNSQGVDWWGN

With UUUUUUUUUUUUUUUUUUUUUUUUCGGAGCGACGGCAGCGGU (ssRNA) [long strand 42-mer ssRNA], the binding result is “binds”.
